The source of these data is US20040018191A1 (SCHERING, published 2004).

The target of the assay is human IGFR1 on cells (HEK293 cells transfected with IGFR1 DNA; MCF-7 cells expressing endogenous IGFR1) (human, UniProt P08069 31-1367). Nature of the assay: cell-based or functional assay.
Chain of human IGFR1 on cells (HEK293 cells transfected with IGFR1 DNA; MCF-7 cells expressing endogenous IGFR1) (P08069 31-1367 limits assumed): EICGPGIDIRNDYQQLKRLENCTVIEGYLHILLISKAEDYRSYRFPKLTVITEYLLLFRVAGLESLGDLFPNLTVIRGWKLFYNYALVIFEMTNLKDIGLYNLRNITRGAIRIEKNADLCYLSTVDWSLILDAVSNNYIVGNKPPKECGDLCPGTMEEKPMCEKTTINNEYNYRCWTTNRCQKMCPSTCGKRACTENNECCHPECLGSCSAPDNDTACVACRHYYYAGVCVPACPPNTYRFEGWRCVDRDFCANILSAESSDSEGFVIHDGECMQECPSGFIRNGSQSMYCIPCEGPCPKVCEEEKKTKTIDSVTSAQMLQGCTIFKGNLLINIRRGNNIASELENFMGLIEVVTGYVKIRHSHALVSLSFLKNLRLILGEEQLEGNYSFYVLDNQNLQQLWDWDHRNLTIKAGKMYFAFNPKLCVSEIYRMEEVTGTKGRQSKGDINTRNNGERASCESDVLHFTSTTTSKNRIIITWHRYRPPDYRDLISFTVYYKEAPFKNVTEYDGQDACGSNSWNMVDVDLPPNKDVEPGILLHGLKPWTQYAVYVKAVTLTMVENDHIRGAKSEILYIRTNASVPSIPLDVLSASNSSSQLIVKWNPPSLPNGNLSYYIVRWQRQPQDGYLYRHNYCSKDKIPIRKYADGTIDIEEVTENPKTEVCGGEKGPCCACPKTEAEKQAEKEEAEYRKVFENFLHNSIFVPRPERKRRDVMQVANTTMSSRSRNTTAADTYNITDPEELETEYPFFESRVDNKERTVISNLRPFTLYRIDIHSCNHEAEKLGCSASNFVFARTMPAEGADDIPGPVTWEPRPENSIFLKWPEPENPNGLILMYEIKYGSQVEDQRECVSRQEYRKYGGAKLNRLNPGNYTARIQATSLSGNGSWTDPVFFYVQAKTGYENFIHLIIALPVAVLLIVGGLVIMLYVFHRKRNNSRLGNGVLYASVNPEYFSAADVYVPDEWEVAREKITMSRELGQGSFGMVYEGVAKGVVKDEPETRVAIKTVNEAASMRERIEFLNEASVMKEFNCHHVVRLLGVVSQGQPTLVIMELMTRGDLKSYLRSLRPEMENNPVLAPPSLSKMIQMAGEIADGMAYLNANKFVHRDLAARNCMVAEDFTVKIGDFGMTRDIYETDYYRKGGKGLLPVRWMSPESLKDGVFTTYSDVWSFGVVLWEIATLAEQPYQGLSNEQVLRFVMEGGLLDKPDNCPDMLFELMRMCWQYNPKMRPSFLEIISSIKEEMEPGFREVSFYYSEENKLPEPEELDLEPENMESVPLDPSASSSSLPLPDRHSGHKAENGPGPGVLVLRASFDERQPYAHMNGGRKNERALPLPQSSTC

B1: 1H3 fully human monoclonal anti-IGFR1 antibody (antibody, V domains shown)
VH: EVQLVQSGGGLVLPGGSLRLSCAGSGFTFSNYAMHWIRQAPGKGLEWVSAIGAGGDTYYADSVKGRFTISRDNAKDSLYLQMNSLRAEDMAVYYCARGRHRNWYYYNKDYWGQGTLVTVSS
VL: EIVLTQSPATLSLSPGERATLSCRASQSVSSFLAWYQQKPGQAPRLLIYDASNRAPGIPARFSGSGSGTDFTLTISSLEPEDFAVYYCQQRSNWPRWTFGQGTKVEIKR
B1: the “IGFR1 autophosphorylation (IGF-I stimulated cells, immunoprecipitation and Western blot), IC50” value (“IGFR1 autophosphorylation” for short) came to 0.1 nM.

B2: 15H12 fully human monoclonal anti-IGFR1 antibody (antibody, IgG3, V domains shown)
VH: EVQLVQSGGGLVHPGGSLRLSCAASGFTFSSFAMHWVRQAPGKGLEWISVIDTRGATYYADSVKGRFTISRDNAKNSLYLQMNSLRAEDMAVYYCARLGNFYYGMDVWGQGTTVTVSS
VL: EIVLTQVPDFQSVTPKEKVTITCRASQSIGSSLHWYQQKPDQSPKLLIKYASQSLSGVPSRFSGSGSGTDFTLTINSLEAEDAAAYYCHQSSRLPHTFGGGTKVEIKR
On to B2, for which the “IGFR1 autophosphorylation” value stood at 0.1 nM.

B3: 19D12 fully human monoclonal anti-IGFR1 antibody (antibody, V domains shown)
VH: B2 VH
VL: B2 VL
On to B3, for which the “IGFR1 autophosphorylation” value was determined as 0.1 nM.
